Target: T1, human colonic mucus (Homo sapiens, UniProt Q02817)
T1 construct: Segments of human colon (ascending, descending and sigmoid colon) were obtained from fully informed patients undergoing surgery; from tissue; host or cells: healthy human colon segments (live explants, mucus collected from them, Carnoy- or formol-fixed sections)
Assay: Staining of human colon explants, two-photons microscopy
Protocol: FIGS. 3A-3B. Cy5-MUB70 colonic mucus binding property. (FIG. 3A) HT-29 MTX living cells were incubated for 2 h with Cy5-MUB70 in a serum-free media. The resulting fluorescent signal (red) was visualized at the surface of the cell layer using an epifluorescent microscope. Z-projection, performed using ImageJ software, allowed 3D localization of Cy5-MUB70 fluorescence signal in the mucus layer. Bar is 10 μm (FIG. 3B) MPE and SHG imaging of the binding of Cy5-MUB70 to the human colonic mucus. […] Human tissue autofluorescence is detected in the same red channel as Cy5.
FIGS. 8A-8D. (FIG. 8A) Cell toxicity of Cy5-MUB70 tested on HT-29-MTX and Hela epithelial cells. Cell survival was assessed using Sytoxgreen dye on cultures exposed to 1 μg/mL Cy5-MUB70 from 0 to 10 h, as indicated. […] Resulting fluorescent staining was assessed using a two-photons microscope (see Methods). Z-projection, performed using ImageJ software, allows 3D localization of Cy5-MUB70 fluorescence signal. […] Human tissue autofluorescence is detected in the same red channel as Cy5. […]
Two-photons microscopy imaging of live healthy human colonic segment was performed using a commercial laser-scanning microscope (LSM710, Meta, Zeiss, Germany). Tissue autofluorescence and Cy5-MUB70 (1 μg·ml^−1) were detected using multiphoton excitation (MPE, red) and collagen was detected using second harmonic generation (SHG, green). […]

B1: Cy5-MUB70: Cy5-labelled MUB70 polypeptide, labelled via Cy5 maleimide on N-terminal cysteine (conjugate)
peptide: CVHVQYIDGETDQMLRQDDLDGYTDETIPYSTAEGIKKFEGDGYELFKDNFPAGEKFDNDDTNDQFYTVIF
- incubation time after which probe is widely detected in mucus layer (1 mm thick mucus layer, human colon explant): 90 min
- mucus layer staining on human colon explants (ex vivo, 1 μg/mL, mucus width around 1000 μm, epithelium and lamina propria unstained): stained heterogeneously on the whole width

— patent publication US10138280B2, “Polypeptides targeting glycosylated MUC2 proteins, methods of synthesis, their nucleic acids and uses thereof” (INSTITUT PASTEUR, priority 2011, dated 2018)
